From the supplement of paper PMC7877785
± gives the uncertainty stated by the source.

Assay: self-splicing fitness, log relative to wild type (ln ratio); higher = more splicing; Tetrahymena group I intron in knt gene, E. coli kanamycin selection, DiMSum; sequences stand for … in CUCUCU…GGAGGGAAAAGUUAUCAGGCAUGCACCUGGUAGCUAGUCUUUAAACCAAUAGAUUGCAUCGGUUUAAAAGGCAAGACCGUCAAAUUGCGGGAAAGGGGUCAACAGCCGUUCAGUACCAAGUCUCAGGGGAAACUUUGAGAUGGCCUUGCAAAGGGUAUGGUAAUAAGCUGACGGACAUGGUCCUAACCACGCAGCCAAGUCCUAAGUCAACAGAUCUUCUGUUGAUAUGGAUGCAGUUCACAGACUAAAUGUCGGUCGGGGAAGAUGUAUUCUUCUCAUAAGAUAUAGUCGGACCUCUCCUUAAUGGGAGCUAGCGGAUGAAGUGAUGCAACACUGGAGCCGCUGGGAACUAAUUUGUAUGCGAAAGUAUAUUGAUUAGUUUUGGAGUACUCGUGGUCG
In short: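 Fitness was computed with DiMSum as the error-weighted combination of replicate fold changes, kanamycin versus none, each normalised to wild type. The library randomised all eight intron nucleotides of the P1ex region, with the intron placed in the knt kanamycin-resistance gene on pET-22b(+) in E. coli BL21(DE3). Six replicate transformations were grown overnight at 37°C or 30°C on LB agar with or without 25 μg/mL kanamycin, plus 100 μg/mL carbenicillin, 50 μM IPTG and 0.2% rhamnose. Pooled colonies were amplicon-sequenced on an Illumina HiSeq 2500.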

| Sequence | self-splicing fitness (ln) (30 °C) | self-splicing fitness (ln) (37 °C) |
| --- | --- | --- |
| UGCCAGCAAUAUUACGCCUU | -1.93 ± 0.13 | -2.29 ± 0.18 |
| UGCCAGCAAUAUUACGGAAC | -3.49 ± 0.34 | – |
| UGCCAGCAAUAUUACGGCCG | -0.659 ± 0.073 | -0.389 ± 0.092 |
| UGCCAGCAAUAUUACGGUGU | -2.53 ± 0.11 | -2.7 ± 0.19 |
| UGCCAGCAAUAUUACGGUUG | -1.94 ± 0.096 | -0.692 ± 0.11 |
| UGCCAGCAAUAUUACGUCCG | -0.88 ± 0.073 | 0.0267 ± 0.11 |
| UGCCAGCAAUAUUACGUGCG | -1.34 ± 0.077 | -1.13 ± 0.091 |
| UGCCAGCAAUAUUACGUGGG | -3.88 ± 0.13 | -2.74 ± 0.14 |
| UGCCAGCAAUAUUACGUUGU | -3.21 ± 0.12 | -2.86 ± 0.18 |
| UGCCAGCAAUAUUACGUUUC | -4.47 ± 0.28 | -1.17 ± 0.16 |
| UGCGAGCAAUAUUACGAGGG | -2.1 ± 0.13 | -2.3 ± 0.17 |
| UGCGAGCAAUAUUACGCACC | -3.32 ± 0.31 | -2.72 ± 0.42 |
| UGCGAGCAAUAUUACGCGAG | -3.16 ± 0.23 | -1.79 ± 0.25 |
| UGCGAGCAAUAUUACGCGAU | -2.39 ± 0.42 | – |
| UGCGAGCAAUAUUACGCGCC | -2.45 ± 0.26 | -1.29 ± 0.27 |
| UGCGAGCAAUAUUACGCGGU | -2.46 ± 0.17 | -2.43 ± 0.19 |
| UGCGAGCAAUAUUACGCUGA | -2.35 ± 0.27 | -2.28 ± 0.27 |
| UGCGAGCAAUAUUACGGCAA | -2.3 ± 0.4 | -0.0535 ± 0.27 |
| UGCGAGCAAUAUUACGGGUA | -1.19 ± 0.18 | -0.698 ± 0.21 |
| UGCGAGCAAUAUUACGGUGA | -2.28 ± 0.18 | -1.49 ± 0.16 |
| UGCGAGCAAUAUUACGGUGU | -4.19 ± 0.23 | -3.16 ± 0.4 |
| UGCGAGCAAUAUUACGUCCA | -0.227 ± 0.25 | -0.499 ± 0.29 |
| UGCGAGCAAUAUUACGUGAG | -4.57 ± 0.36 | -2.63 ± 0.18 |
| UGCGAGCAAUAUUACGUUGG | – | -1.27 ± 0.26 |
| UGCUAGCAAUAUUACGAAAG | -2.06 ± 0.21 | -0.114 ± 0.19 |
| UGCUAGCAAUAUUACGAACA | -0.29 ± 0.12 | 0.199 ± 0.13 |

| Sequence | self-splicing fitness (ln) (30 °C) | self-splicing fitness (ln) (37 °C) |
| --- | --- | --- |
| UGCUAGCAAUAUUACGACAA | -1.15 ± 0.13 | -0.207 ± 0.14 |
| UGCUAGCAAUAUUACGACAU | -2.027 ± 0.016 | -1.05 ± 0.034 |
| UGCUAGCAAUAUUACGACCA | 0.141 ± 0.17 | 0.148 ± 0.27 |
| UGCUAGCAAUAUUACGACUC | -2.59 ± 0.27 | -0.141 ± 0.2 |
| UGCUAGCAAUAUUACGAGGC | -2.55 ± 0.19 | -1.89 ± 0.34 |
| UGCUAGCAAUAUUACGCAGC | -4.35 ± 0.36 | -2.1 ± 0.28 |
| UGCUAGCAAUAUUACGCCGA | -2.48 ± 0.25 | -1 ± 0.19 |
| UGCUAGCAAUAUUACGCCUU | -2.68 ± 0.23 | 0.255 ± 0.17 |
| UGCUAGCAAUAUUACGCGUC | -3.06 ± 0.27 | -2.23 ± 0.27 |
| UGCUAGCAAUAUUACGCUCU | -1.63 ± 0.13 | -0.156 ± 0.15 |
| UGCUAGCAAUAUUACGCUGU | -3.58 ± 0.22 | -2.38 ± 0.27 |
| UGCUAGCAAUAUUACGCUUU | -2.16 ± 0.14 | -2.22 ± 0.19 |
| UGCUAGCAAUAUUACGGAGC | – | -1.42 ± 0.41 |
| UGCUAGCAAUAUUACGGAGG | -2.23 ± 0.14 | -1.13 ± 0.13 |
| UGCUAGCAAUAUUACGGCGC | -3.41 ± 0.37 | 1.38 ± 0.48 |
| UGCUAGCAAUAUUACGGGGG | -0.837 ± 0.13 | -2.32 ± 0.32 |
| UGCUAGCAAUAUUACGGGUA | -0.992 ± 0.14 | -0.151 ± 0.12 |
| UGCUAGCAAUAUUACGGGUU | -2.39 ± 0.14 | -1.33 ± 0.14 |
| UGCUAGCAAUAUUACGGUUG | -0.971 ± 0.06 | -0.318 ± 0.082 |
| UGCUAGCAAUAUUACGGUUU | -1.27 ± 0.062 | -0.216 ± 0.073 |
| UGCUAGCAAUAUUACGUCAG | -2.36 ± 0.12 | -1.33 ± 0.12 |
| UGCUAGCAAUAUUACGUUAC | – | -1.91 ± 0.23 |
| UGCUAGCAAUAUUACGUUGC | -3.53 ± 0.34 | -1.77 ± 0.23 |
| UGCUAGCAAUAUUACGUUUU | -3.29 ± 0.18 | -1.94 ± 0.14 |
| UGGAAGCAAUAUUACGAAAA | -1.93 ± 0.22 | -1.13 ± 0.19 |
| UGGAAGCAAUAUUACGAAUG | -0.927 ± 0.11 | -0.211 ± 0.12 |

| Sequence | self-splicing fitness (ln) (30 °C) | self-splicing fitness (ln) (37 °C) |
| --- | --- | --- |
| UGGAAGCAAUAUUACGACUA | -0.154 ± 0.074 | 0.331 ± 0.11 |
| UGGAAGCAAUAUUACGAUCG | 0.288 ± 0.14 | 0.382 ± 0.15 |
| UGGAAGCAAUAUUACGCCUG | -0.491 ± 0.083 | -0.15 ± 0.099 |
| UGGAAGCAAUAUUACGCGAG | -1.26 ± 0.19 | 0.167 ± 0.16 |
| UGGAAGCAAUAUUACGCGCA | -0.534 ± 0.13 | 0.365 ± 0.13 |
| UGGAAGCAAUAUUACGCGUA | -1.21 ± 0.11 | -0.131 ± 0.15 |
| UGGAAGCAAUAUUACGCUAC | -4.5 ± 0.34 | -2.24 ± 0.21 |
| UGGAAGCAAUAUUACGCUCA | -0.562 ± 0.11 | -0.00417 ± 0.13 |
| UGGAAGCAAUAUUACGGCCU | -0.816 ± 0.11 | -0.639 ± 0.13 |
| UGGAAGCAAUAUUACGGCGG | -0.545 ± 0.08 | -0.13 ± 0.1 |
| UGGAAGCAAUAUUACGGCUA | -0.499 ± 0.14 | -0.0289 ± 0.23 |
| UGGAAGCAAUAUUACGGUGU | -1.46 ± 0.14 | -3.33 ± 0.27 |
| UGGAAGCAAUAUUACGUAGA | -2.06 ± 0.13 | -1.01 ± 0.13 |
| UGGAAGCAAUAUUACGUCAC | – | -1.54 ± 0.24 |
| UGGAAGCAAUAUUACGUGAC | -2.76 ± 0.34 | -1.75 ± 0.4 |
| UGGAAGCAAUAUUACGUGGU | -3.53 ± 0.49 | -2.25 ± 0.3 |
| UGGAAGCAAUAUUACGUUCU | -3.42 ± 0.25 | -1.31 ± 0.17 |
| UGGAAGCAAUAUUACGUUGC | -4.13 ± 0.47 | -3.11 ± 0.4 |
| UGGAAGCAAUAUUACGUUGG | -2.69 ± 0.19 | -0.902 ± 0.14 |
| UGGCAGCAAUAUUACGACGU | -1.84 ± 0.16 | -0.565 ± 0.2 |
| UGGCAGCAAUAUUACGACUC | -1 ± 0.1 | -1.1 ± 0.12 |
| UGGCAGCAAUAUUACGAUAC | -3.31 ± 0.48 | -1.99 ± 0.38 |
| UGGCAGCAAUAUUACGAUUU | -1.66 ± 0.086 | -0.484 ± 0.1 |
| UGGCAGCAAUAUUACGCAGA | -1.21 ± 0.14 | -0.916 ± 0.12 |
| UGGCAGCAAUAUUACGCAGG | -2.79 ± 0.16 | -1.23 ± 0.12 |
